Key:
purified protein [1] = substrate: CC(C)(C)c1ccc(O)c(O)c1; experiment: purified protein; type: biochemical, Olea europaea; settings: diphenolase, 50 mM sodium phosphate pH 6.8, 1 mM SDS, 25 °C, substrate range 0.2–7 mM
purified protein [2] = substrate: NCCc1ccc(O)cc1; experiment: purified protein; type: biochemical, Olea europaea; settings: monophenolase, pH 6.8, 25 °C, substrate range 0.2–7 mM

B1: OePPO3 (Olea europaea subsp. europaea) (protein)
chain: APISAPDVTTCGPADLPQGAAPTNCCPPPTGEILDFKFPPPPTTMRVRPAAHLADEAYIAKFNRAVELMRALPDDDPRSFRQQANVHCAYCDGAYDQVGFPNLELQVHNSWLFFPFHRYYLYFFERILGNLIDDPTFAMPFWNYDAPGGMHLPAIYANQNSSLYDPLRDSAHQPPAFIDLNFSGSDANTGEAQQTSRNLTIMYRQMVSNSKTPRLFFGSPYRRGEDPNPGSGSIENIPHGPVHVWTGDRTQPNFENMGNFYSAGRDPIFFAHHSNIDRMWTLWKTLGGRRQDITDPDFLDASFVFYDENAKMVRVKVRDCLDHTKLGYVYQDVEVPWLRSRPKPRISSVVRKLKKLVRANAADIPSPKDIFPAKLDQVIKVMVKRPKKKRSKKEKDELEEILIIQGIELERDVYAKFDVFINDEDDEESTPENTEFAGSFVNVPHKHKNDKKIKTNLRLSITDILEDLDAEDDQHVLVTLVPKNFGDAITVHGIKIELDD
notes: GST tag cut off with PreScission (pGEX6P.1); E. coli BL21(DE3); about 54 kDa
Purified protein [1]
  Km: 800 µM
  Vmax: 130 µmol/min/mg
Purified protein [2]
  Km: 700 µM
  Vmax: 2.7 µmol/min/mg
